Data taken from the DeepSol protein solubility set.

Test: soluble on expression in E. coli; label from the status in PepcDB or PDB records

Sequence: MGSDKIHHHHHHMQELCSSVVLRKHSWIQYNAMSDTVIKVEKLSKEYRLGTINHGFLFRDLQSWWARRRGKEDPNSLITTYQQHLVSDDNSRLSGGRFLALDDLTFEVRQGDALGIIGRNGAGKSTLLKIISKVTSPTSGVVKIRGRVASLLEVGTGFHPELTGRENIYLNGAISGMNKKEIKNKFDEIVAFSGVEKFIDSPVKRYSSGMYVRLAFAVAAHLGPEILIVDEVLAVGDIQFQKQCLGKMDDISKGGRTVVFVSHSLQTIASLCRECILLDQGKIKKRGLPSEVILEYLGEGGSSCADFTKLGRTVGDNFVQLVMGIVQDANNEVITEIDIREPLKISMHFTVKQDTSIRYIPNFHFTVPGGTYAFVSSPSSISELSSGNYIATCNIPGNFLNEGTYYVGLAITSYEPGMTIHFFEPNVLTFSIRDPMENCVGRYGFGYANVMPGIVRPNLDWDVRKSG
- soluble on expression in E. coli: not soluble

Sequence: MELDDFDPEDKEILSWDINDVKLPQNVKTTDWFQEWPDSYVKHIYSSDDRNAQRHLSSWAMRNTNNHNSRILKKSCLGVVVCSRDCSTEEGRKIYLRPAICDKARQKQQRKSCPNCNGPLKLIPCRGHGGFPVTNFWRHDGRFIFFQSKGEHDHPRPETKLEAEARRAMKKVHM
- soluble on expression in E. coli: soluble

Sequence: MGSDKIHHHHHHMSKIVVLGAGPAGCSAGYHLAKSGHKVMLIDKDCFPRDKTCGDGISLGSVQALSTMGIYPDDIKRLASEYAQIDGFLLGVSNEISHLCPTELKGYCIPRFVFDNLLYQKAINAGCVARTQRISDIEGYHQELYSDFDYIIDARGVYAGEANAIAIRAYWSIKVADFPKIYLSKAQIYFDKAFGVNGYGWIFPVAVDSELVKLNVGVGVWLDEYQKNNTNIIRLFNEFVQRNQATKQLLSLVVSQQKPKAYPLATAKRANTVSYGKVFKIGDAANLTDPLTGEGIANAILSGLYVTQAINMSTSPELASENWQRLYQLYFEPDLDAGLQIKSFRKFSFINKLLIWLMNRNKPFAEQVTYTFAGLIPYKKLLP
- soluble on expression in E. coli: not soluble

Sequence: MASPISHSSHENASGKYGYGDESQHGKNFHQKAEHSGHEAKEKGYSQDGKAADHDALHKDAAEHKQNKEAHQSGSGNKYVDDASNYNKDVKTKTFGFFDYRYVQPQYHMEQYHTDEKHANKYAGDEHNAGQQHKDNGGYHADGHQGYDKAQEKHGASHTNYGNEDAGHKSKYDDNEGKYGDHTDGYYNKGYDNYGQGHDSESYQPSYYQPKPKYYGGHQSHYQPSARHSSPYQGDQYYGYEAPHY
- soluble on expression in E. coli: not soluble

Sequence: MAEIIFNLSADDEGIGKHNYLCSLISQQSARCISGYVFSSSGFGESTTDVVFAGNGLIYENGYLLARSERFCMEEQLIINEIDVECIRAERRVNTTFAANKANCPGKEAVRISTEFVNSKDLNLTRTFNPHPFVPQGNELNSRLEHHHHHH
- soluble on expression in E. coli: not soluble

Sequence: MAHHHHHHMGGVRIARCNPKLLDFVTWAVMKGCRLFQRVHVTPLGLVATERIPEFDFVAVVPVEATQSLLSIADDPSFALKVSAERHGEPVPFWEDLTRGSFAFLGFLTKALLTGHPRGVQTYLDVLPFDPAMPIGKMADAAQTTKGYKEWAAPLVAQCKVEESDFNAAFRHAYCLFRRHAIPLWSTSDASGSGHPYFQQSPYARRGQGELMGMVPVMDLALHSPQPNAMIGYPDEEMLQWLSLHKKAAVQQEKGYFVMQAFRDIEEGEVISVNKNAYFNFDDDAFEAWFGYPNVSQVPAEGSGELSSGCKPNGGEGAAVNCAL
- soluble on expression in E. coli: soluble

Sequence: MWLPTPLGPLWLEVSPLGVRRLEPALYPRGPEAEGALALRVREAVQAYFAGERPDFLDLPLDYTGLSPARLRLYERVRLVPYGRTVSYGALGRELGLSPRAVGAALRACPFFLLVPAHRVIHADGRLGGFQGQEGLKLWLLRFEGAL
- soluble on expression in E. coli: soluble

Sequence: MSLRKEPYLLVFGASVVDVFGFSKASYRPYNSTPGHVKISFGGVCRNIAENMARVGVNTNFMSILGNDEHGKSIVEHSKKIGYHMDDSMVIEGGSTPTYLAILDENGEMVSAIADMKSIGAMNTDFIDSKREIFENAEYTVLDSDNPEIMEYLLKNFKDKTNFILDPVSAEKASWVKHLIKDFHTIKPNRHEAEILAGFPITDTDDLIKASNYFLGLGIKKVFISLDADGIFYNDGVSCGKIKATEVDVKNVTGAGDSFVAGLGYGYMNKMPIEDIVKFAMTMSNITISHEETIHPDMALDTVLAKLEKTTWEEEKYDLNEGHHHHHH
- soluble on expression in E. coli: soluble

Sequence: MMKLKFYLVYLWYKVLLKLGIKTDEIYYIGGSEALPPPLTKEEEEVLLNKLPKGDQAARSLLIERNLRLVVYIARKFENTGINIEDLISIGTIGLIKAVNTFNPEKKIKLATYASRCIENEILMHLRRNNKNRSEVSFDEPLNIDWDGNELLLSDVLGTDDDIITKDLEATVDRHLLMKALHQLNDREKQIMELRFGLAGGEEKTQKDVADMLGISQSYISRLEKRIIKRLRKEFNKMV
- soluble on expression in E. coli: not soluble

Sequence: MGDGVLELVVRGMTCASCVHKIESSLTKHRGILYCSVALATNKAHIKYDPEIIGPRDIIHTIESLGFEASLVKIE
- soluble on expression in E. coli: soluble

Sequence: SATSKLQALWNHPAGPKTIHFWAPTFKWGISIANIADFQKPPENISYLQQIAVTCTGMIWCRCSTIITPKNWNLFSVNVAMAATGIYQLTRKIKYDYVSEAEAAVEIEG
- soluble on expression in E. coli: soluble

Sequence: GQSLPSVSKEIRELSNRTEQQTSLSDRKESEAFALETVRMISDRTLYLFRLAEGRSWEADVRGRSWASRVLPIVHRLKHGGIPWKQYLSSDSLCMEARLYGKYDSVTGAYRRGVVSFRSDIPQRNKVDDLTALALLGENVYAEEFDFGNRQIFPNPIRREAEAFYTYRLDSLYEKDGITYRRIAFRGLSGLNHGTVTIDATHGQLAILEMRVMMKGVITESYRVELGEVEPGLFLPIGLSVVIDRNRLWASLHNGYSASISYPGEQLDKTVLPVYTPTDSSRYRLPDELPVAPVWAVRSSFGREDSSTYWKNVVVGRDHTLHQHVPWHRALAWGHKYRIGERWRLGNEGLVWALFYYNYADHLWLGQSLTAIYDMAPGIRWEIKPGLYYVTKRRKAVWTLDSKLYYSPPQRGLLQLSAGHRSFDLYSTRERIDQLTDLMMELLNGQGPTTRYDDKFVRLTNSIDLLPKLNVETSVMLAERNPLPHGET
- soluble on expression in E. coli: not soluble

Sequence: MSLPAKRKLTMRHIRQMLRLAGSGTSSREIAVMLGIARSTVQDNLKRAAMAGLSWALASGLTDDVLEAKLFVHPGVKRGQRLRQEPDWGPLSIELKKPGVTLLILWEEYRSAHPDGYGYSRFCELFRGFEKRLSPTMRQEHIAGDKVFVDYSGKKVPIVDRKTGEIREAELFLGVLGASSYCTRGRSVHLGELLRRAWIFQHLGNREGHHHHHH
- soluble on expression in E. coli: not soluble

Sequence: NVQEEVTCPICLELLTEPLSLDCGHSLCRACITVSNKEAVTSMGGKSSCPVCGISYSFEHLQANQHLANIVE
- soluble on expression in E. coli: soluble

Sequence: GPGSMHRIVKVNVGGRYFQTRLSTLLRFPDTSFARMFEGLASTSALPPTLSPPPQPTESEDVFVDANPDVFEKVLGFLRTNRIQLPLNDECLRAELVHHLNSWDLMPHAFPASAADGAVEGEEAHRIELPDVCVVQLCDHMQHDQGVKRHAMTITYGADGFQLRKLTQMIRRDLNQQLSSTYWQCYQTNERAAFFATTKVANGAADILTTSITQQVVQHTERLGYHLATSYVTL
- soluble on expression in E. coli: not soluble

Sequence: SREEMSLGCQEAFEIFKRDHADSVTIDDNKQILKQRFSEAKALGESINEARSKIGHLKEEITQRHIQQVALGISENMAVPLMPDQQEEKLRSQLEEEKRRYKTMFTRLKALKVEIEHLQLLMDKAKVKLQKEFEVWWAEEATNLQVNSPAVNSLDHTKPFLQTSDSQHEWSQLLSNKSSGGWEVQDQGTGRFDVCDVNARKILPSPCPSPHSQKQSSTSTPLEDSIPKRPVSSIPLTGDSQTDSDIIAFIKARQSILQKQCLGSN
- soluble on expression in E. coli: soluble

Sequence: MHHRHLQVLRTDASGMPLEWIGYQEAAKLYYLEQVAYGCGSILFRLRGGINAKTGQRSRIEVNSIVATFGHANSGYKVDMGYVPPLNNAALFRRDGHICLYCGNLFRHSELSRDHIQPTSRGGSDTWNNVVTACKRCNNHKAGRTPEEAKMQLLAIPFTPTHAEYIYLQGRRVLADQMEFLKAHFPRKSPLHQRLSLEHHHHHH
- soluble on expression in E. coli: not soluble

Sequence: VKILVDENMPYARDLFSRLGEVTAVPGRPIPVAQLADADALMVRSVTKVNESLLAGKPIKFVGTATAGTDHVDEAWLKQAGIGFSAAPGCNAIAVVEYVFSSLLMLAERDGFSLYDRTVGIVGVGNVGRRLQARLEALGIKTLLCDPPRADRGDEGDFRSLDELVQRADILTFHTPLFKDGPYKTLHLADEKLIRSLKPGAILINACRGAVVDNTALLTCLNEGQKLSVVLDVWEGEPELNVELLKKVDIGTSHIAGYTLEGKARGTTQVFEAYSKFIGHEQHVALDTLLPAPEFGRITLHGPLDQPTLKRLVHLVYDVRRDDAPLRKVAGIPGEFDKLRKNYLERREWSSLYVICDDASAASLLCKLGFNAVHHPAR
- soluble on expression in E. coli: soluble

Sequence: GSERVNYKPGMRVLTKMSGFPWWPSMVVTESKMTSVARKSKPKRAGTFYPVIFFPNKEYLWTGSDSLTPLTSEAISQFLEKPKPKTASLIKAYKMAQSTPDLDSLSVPS
- soluble on expression in E. coli: soluble

Sequence: MSSETLEFSGCNFFRIRLAYSILSGRPIRIINIRKNDDRPGIRDFESKLIGLLEKVTNGTKVEISRTGTQVIFRPGMITGGVVNLDCGTERCISYFLEPLLLLSPFCKVPMVIKLKGVTNAPGEISVDGMKASWLKVYNKFVLNDEKLDIKIQARGLKPEGGGVVVFTAPIVKTLRPVKRQQVGKVCKIRGQAYVTKVTPSLAYRMIDAAKKAMHGYISDVYITVDQRKGDAGGASPGYGLFLTAETTEGVIYQAEAISRPKGESGVPILPEDIGIEAGHALLQQIYMGGALDSSAQILASTFMTLCPKDVSHFLYGPLPMYSVHALRHLKQFFEIEFKMEDFKKTLKEEEADLKTGSADKAMVTAVGVGYSNLNKTIL
- soluble on expression in E. coli: not soluble

Sequence: MSDVTVVNCPTCGKPVVWGEISPFRPFCSKRCQLIDLGEWAAEEKRIASSGDQSDSDDWSEER
- soluble on expression in E. coli: not soluble

Sequence: MNKGRVTQIMGPVVDVKFDGGKLPEIYNALTVKQSNENGTSINLTFEVALHLGDDTVRTVAMSSTDGLVRGTEVEDTGKAISVPVGDATLGRVFNVLGDAIDLDGEVPADVRRDPIHRQAPAFEELSTKVEILETGIKVVDLLAPYIKGGKIGLFGGAGVGKTVLIQELINNIAQEHGGISVFAGVGERTREGNDLYHEMSDSGVIKKTAMVFGQMNEPPGARQRVALTGLTMAEHFRDEQGQDVLLFIDNIFRFTQAGSEVSALLGRMPSAVGYQPTLATEMGQLQERITSTNKGSITSIQAVYVPADDYTDPAPATTFAHLDATTNLERRLTQMGIYPAVDPLASTSRALSPEIVGEEHYEVARQVQQTLQRYKELQDIIAILGMDELSEEDKLVVHRARRIQFFLSQNFHVAEQFTGQKGSYVPVKETVRGFKEILEGKYDDLPEDAFRLVGGIEEVIENAKKMMA
- soluble on expression in E. coli: not soluble

Sequence: SNMEVDVFPDLNAPTVVVMTEATGMAPEEVERLVTFPVETAVNGATDVRRVRSSSTTGFSIVWVEFDWGTDIYRARQIVSEKLAVVGADLPDNVGKPTLGPQSSILGEVMIIGLTADSTSLQDLRTLADWTIRPRLLSIGGVAQVTVLGGDIKEYQILLNPERMKHYGITLAEVRAAVDQMNRNASGGVLYEYGNEYIICGLLSTNDAAALGKTLVKSLDDIPIMLESVAEVRVGNKAPKLGLASERGQSAVLVTITKQPATSTLELTERLDRSLADLQKALPSDVKVSTDIFRQERFIENSISNVRK
- soluble on expression in E. coli: not soluble

Sequence: MSLKPTDLNLIPIFIAIYEERNLSRAAARLDITQPAVSKALARLRDIYDEPLFHRSSSGVEPTSFAVDIYPAMVAAIKNFTSTLSASVEFDPKVSNRIFSIACVSILSYELLPQLMKQIHELAPNIALEVHPLFTEDYESDLRLQRYDLIIDLAPRGRTVLKVEPVITERLMVVCNKDHPRIAESISQEQFFEEEHVAVSQWQSRKSMLSAEDIVDLDKRKIMYRAAGALEMLPVICGSEYIGLMPESMIKLFSNTYHVKALPFPFDVTTYDLCTIWHPSRTNESAHQWLRAQIKHAGKVIKEGHHHHHH
- soluble on expression in E. coli: soluble
